From IntAct's records for PubMed 14673118

B1: Thioredoxin (Synechocystis sp. (strain PCC 6803 / Kazusa)), P52231 (parent)
chain: MSATPQVSDASFKEDVLDSELPVLVDFWAPWCGPCRMVAPVVDEISQQYEGKVKVVKLNTDENPNTASQYGIRSIPTLMIFKGGQRVDMVVGAVPKTTLASTLEKYL
partner: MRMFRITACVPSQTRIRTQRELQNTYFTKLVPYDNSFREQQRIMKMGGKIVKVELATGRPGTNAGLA
B2: Thioredoxin (Synechocystis sp. (strain PCC 6803 / Kazusa)), P52231 (parent)
chain: B1 chain
partner: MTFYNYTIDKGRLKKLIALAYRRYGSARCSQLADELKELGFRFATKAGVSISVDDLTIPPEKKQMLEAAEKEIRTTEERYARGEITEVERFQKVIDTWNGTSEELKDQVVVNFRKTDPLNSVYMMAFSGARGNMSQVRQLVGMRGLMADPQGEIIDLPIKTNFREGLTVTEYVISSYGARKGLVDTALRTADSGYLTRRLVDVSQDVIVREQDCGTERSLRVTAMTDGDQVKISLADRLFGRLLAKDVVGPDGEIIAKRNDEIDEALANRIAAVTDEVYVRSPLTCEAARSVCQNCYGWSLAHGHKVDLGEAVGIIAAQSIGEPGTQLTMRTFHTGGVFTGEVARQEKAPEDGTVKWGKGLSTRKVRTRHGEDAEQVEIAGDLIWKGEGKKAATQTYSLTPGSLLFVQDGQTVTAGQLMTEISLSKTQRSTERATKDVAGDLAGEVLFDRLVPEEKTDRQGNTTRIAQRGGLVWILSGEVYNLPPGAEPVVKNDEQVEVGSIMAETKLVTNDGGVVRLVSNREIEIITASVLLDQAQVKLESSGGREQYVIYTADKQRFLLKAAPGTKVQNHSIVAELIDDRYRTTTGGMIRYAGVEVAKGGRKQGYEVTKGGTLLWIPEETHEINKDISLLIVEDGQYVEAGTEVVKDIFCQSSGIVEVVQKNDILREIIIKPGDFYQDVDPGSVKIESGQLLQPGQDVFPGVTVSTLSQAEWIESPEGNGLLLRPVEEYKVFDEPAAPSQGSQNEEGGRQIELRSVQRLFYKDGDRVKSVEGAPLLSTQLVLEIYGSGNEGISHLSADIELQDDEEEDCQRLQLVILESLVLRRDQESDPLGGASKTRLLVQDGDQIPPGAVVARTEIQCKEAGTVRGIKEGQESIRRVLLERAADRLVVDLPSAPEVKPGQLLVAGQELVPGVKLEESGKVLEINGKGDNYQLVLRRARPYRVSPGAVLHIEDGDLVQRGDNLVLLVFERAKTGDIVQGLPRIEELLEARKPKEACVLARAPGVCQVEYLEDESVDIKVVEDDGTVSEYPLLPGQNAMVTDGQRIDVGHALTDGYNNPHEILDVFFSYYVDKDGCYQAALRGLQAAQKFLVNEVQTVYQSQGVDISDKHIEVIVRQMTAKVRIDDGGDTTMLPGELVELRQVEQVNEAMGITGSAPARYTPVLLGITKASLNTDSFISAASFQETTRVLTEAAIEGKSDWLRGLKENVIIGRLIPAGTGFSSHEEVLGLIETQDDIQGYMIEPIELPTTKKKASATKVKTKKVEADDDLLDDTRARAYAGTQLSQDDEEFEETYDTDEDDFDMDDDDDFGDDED
B3: Thioredoxin (Synechocystis sp. (strain PCC 6803 / Kazusa)), P52231 (parent)
chain: B1 chain
partner: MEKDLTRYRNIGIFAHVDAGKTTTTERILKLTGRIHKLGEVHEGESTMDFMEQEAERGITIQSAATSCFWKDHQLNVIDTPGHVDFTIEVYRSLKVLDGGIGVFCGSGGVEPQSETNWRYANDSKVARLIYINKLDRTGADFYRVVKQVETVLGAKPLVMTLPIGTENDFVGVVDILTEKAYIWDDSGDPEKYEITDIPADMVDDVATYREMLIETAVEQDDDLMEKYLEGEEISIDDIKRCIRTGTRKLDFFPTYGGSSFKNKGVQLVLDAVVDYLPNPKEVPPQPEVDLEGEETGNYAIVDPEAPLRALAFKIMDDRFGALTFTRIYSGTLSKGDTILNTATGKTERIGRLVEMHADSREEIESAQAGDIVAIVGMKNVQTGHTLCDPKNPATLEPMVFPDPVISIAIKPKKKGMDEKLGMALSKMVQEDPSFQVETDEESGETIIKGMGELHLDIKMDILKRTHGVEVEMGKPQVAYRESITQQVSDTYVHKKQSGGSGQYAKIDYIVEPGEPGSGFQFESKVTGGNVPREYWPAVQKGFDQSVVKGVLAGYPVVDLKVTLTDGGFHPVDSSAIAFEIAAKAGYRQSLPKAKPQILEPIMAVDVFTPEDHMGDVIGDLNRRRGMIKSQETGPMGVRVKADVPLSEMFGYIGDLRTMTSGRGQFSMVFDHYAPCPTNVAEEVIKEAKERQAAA
B4: Thioredoxin (Synechocystis sp. (strain PCC 6803 / Kazusa)), P52231 (parent)
chain: B1 chain
partner: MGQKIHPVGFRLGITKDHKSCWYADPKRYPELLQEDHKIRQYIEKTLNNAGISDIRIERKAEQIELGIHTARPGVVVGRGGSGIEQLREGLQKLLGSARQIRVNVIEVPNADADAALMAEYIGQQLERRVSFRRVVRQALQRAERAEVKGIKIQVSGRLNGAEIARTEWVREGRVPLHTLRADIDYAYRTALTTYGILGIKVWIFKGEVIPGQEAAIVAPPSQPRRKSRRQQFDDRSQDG
B5: Thioredoxin (Synechocystis sp. (strain PCC 6803 / Kazusa)), P52231 (parent)
chain: B1 chain
partner: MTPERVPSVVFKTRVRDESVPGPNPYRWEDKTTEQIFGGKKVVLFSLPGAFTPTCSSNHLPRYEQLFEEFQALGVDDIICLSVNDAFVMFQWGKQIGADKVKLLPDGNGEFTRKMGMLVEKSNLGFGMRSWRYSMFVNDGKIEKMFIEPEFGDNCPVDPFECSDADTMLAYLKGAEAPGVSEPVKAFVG

Variants of: B1
Details: with pyc1_syny3 apcC

| Variant | effect of a mutation on the interaction |
| --- | --- |
| C35S | increasing interaction |

Variants of: B2
Details: with rpoc2_syny3 rpoC2, P73334

| Variant | effect of a mutation on the interaction |
| --- | --- |
| C35S | increasing interaction |

Variants of: B3
Details: with efg1_syny3 fusA

| Variant | effect of a mutation on the interaction |
| --- | --- |
| C35S | increasing interaction |

Variants of: B4
Details: with rs3_syny3 rpsC

| Variant | effect of a mutation on the interaction |
| --- | --- |
| C35S | increasing interaction |

Variants of: B5
Details: with prx5_syny3 prx5, P73728

| Variant | effect of a mutation on the interaction |
| --- | --- |
| C35S | increasing interaction |
